± gives the uncertainty stated by the source.

This data set can be described thus: amyloid nucleation score (Sup35N fusion, yeast selection) (log enrichment); library NNK1; higher = more nucleation; inactive = no reads after selection. The gist of the method:
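Sup35N fusions to peptides of 20 random codons were expressed in psi-negative yeast, induced 24 hours with 100 μM copper sulfate, and grown 7 days at 30°C on medium lacking adenine and uracil. Input and output plasmid inserts were sequenced by Illumina. The nucleation score is the DiMSum log enrichment of output over input reads, centred on the mode score of non-aggregating sequences. Sequences with under 100 input reads were excluded.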

Consider FCLNHHMVLYSIRRWNVFVY, for which the amyloid nucleation score was -2.16 ± 2.7. As for LDVTSDFCTMI, the amyloid nucleation score turned out to be 0.5 ± 0.38.

As to GWMNCHNSTWRVGQALSSSR, the amyloid nucleation score was determined as 0.282 ± 0.48. For TSSWDSPCYQEAVFIGGYYI the value was 0.619 ± 0.47; for NGSADNIIVYGYDANLRWVR, 0.262 ± 0.43. For IGDDLLGVFLYIETNSTPVF the value was 0.655 ± 0.74; for WMTHWVLSYTTNLLIWVHGW, 0.005 ± 1.2; for NFDSELFSPLMISDVREFTK, 1.62 ± 0.47. For FNRCMFHFGDEVVKELL the value was -0.376 ± 0.91.

On to DVKCAVTLVL, for which the amyloid nucleation score was -0.055 ± 0.6. To RCLIDCD belongs 0.157 ± 0.52; to SNYFVSVDRGIWSCCYMCSF, 7.474 ± 0.063; to WDTTVWMIPFNARVFFVGLC, -0.083 ± 0.35. To HSVIIALRGCIRIG belongs 2.25 ± 0.15. With RTRFTDASMVWDANFMSNLY, the amyloid nucleation score result was “inactive”.

Regarding CTEFRFF, the amyloid nucleation score is 0.314 ± 0.47.

As for RNQDLLHFLVVGIAVKKYNY, the amyloid nucleation score was -0.598 ± 0.35. Take ARYRYVTVYQV: the amyloid nucleation score was -0.725 ± 0.35.

Regarding SWSSKRNVWEHIVGESYEYF, the amyloid nucleation score result is “inactive”. For VHLSGFVSLNLTVVSIRCIA the value was 2.06 ± 0.31; for VLCAGLPWYTELVRFSYWAD, -0.642 ± 0.56; for IGGRGVLKSVSTLTCVLWTW, 0.473 ± 0.92. For TIVSDGAQDFQHHS, the amyloid nucleation score entry was “inactive”. To YMKLKRVDMSVYSCCLVFGH belongs -0.648 ± 0.73; to MRLSQGGPLRLPRVTFSRYC, 0.027 ± 1.7; to TCRFTHLLFWYFK, 0.246 ± 0.97.

In turn, MYVFRVLASSVWKSMMLFDL came in with an amyloid nucleation score of 0.146 ± 0.23. Regarding LKMEYHVGRNWSLGKSRAPE, the amyloid nucleation score is 0.335 ± 0.92. To FVMRAFNLIRWVGSACNLET belongs “inactive”. For MRTRWSIIMDVRYDNSV the value was 1.55 ± 0.21. To GSYRLKCCTYLVGKY belongs 1.73 ± 0.28.

Regarding WQLLKKCP, the amyloid nucleation score is -0.576 ± 0.41. To DCYSRNVDLYGCGDDGDILL belongs -0.031 ± 0.25; to LKYFYR, 0.44 ± 0.34; to TSNNLFKRALVGDYNKVAYR, 0.572 ± 0.75.

With YSSLRGWLC, the amyloid nucleation score result is “inactive”. For the substance ITVST, the amyloid nucleation score was -0.134 ± 1.4.

Regarding VEFYRYFGWCPNYLPQHQWL, the amyloid nucleation score is -0.148 ± 0.56.

The substance LRILVITYILCT returned an amyloid nucleation score of -0.331 ± 0.42. FIGPRN: the amyloid nucleation score is -1.05 ± 1.2.

TVNHFGLEPCVTKIMGLY: the amyloid nucleation score worked out at 0.213 ± 0.74.

Substance KYMFRARCKRMTFGYPG yielded an amyloid nucleation score of -1.58 ± 1.4. For SNFGCFYCLLIPRNKKLGLG the value was 1.67 ± 0.47; for CYIYPVFLGFMYCREEGNMG, 1.93 ± 0.37; for QHTTVRFRTGDKRNQFLSSI, -0.843 ± 1.1. To SASPLVAMDNVGCA belongs -0.748 ± 0.37; to FPMWYYH, -0.366 ± 0.74; to LRSIRVPP, -0.005 ± 0.32. Regarding MKVIDFVGFPFMGWRKWKTW, the amyloid nucleation score is -0.063 ± 0.35. Regarding DGFALGMSRC, the amyloid nucleation score result is “inactive”. For CFFDGICLDQERYVMNFRAF the value was 0.104 ± 0.51. CSKFLVVVSVYFLVYSVEHM: the amyloid nucleation score was -0.94 ± 1.6. For DYGVMWI the value was 0.296 ± 0.41. For NFSHHSIYGHVPRPEEQNPM the value was 0.481 ± 1; for FAVSIVSFLRASVVDWVWYT, -0.209 ± 0.66; for FRFSGHWGETIASRTG, 0.376 ± 0.95.

Take VYYYVNTVCWSARFHVGSGR: the amyloid nucleation score was -0.561 ± 0.74.

LWVRSKFRSC gave an amyloid nucleation score of -0.08 ± 1.1. KSGDMWW came in with an amyloid nucleation score of 0.087 ± 0.37. For EGTSPHMHSIRFTLSQLPSF the value was 0.236 ± 1.1; for VVEIWR, 0.655 ± 0.6. In the case of LVSQVFNVQRYGGRTVPQSF, the amyloid nucleation score was 0.364 ± 1.2. To HRRAFRQVVVTAGPKQASPM belongs 0.001 ± 0.56. LDYLTTRKANVHRGCVALML gave an amyloid nucleation score of -1.27 ± 0.78. For YWYNNAWASLWFQAWVDWYI the value was 0.446 ± 0.33; for YFSFIWMYKMDIMTI, -0.117 ± 0.35; for WKDRPRVCLFMLLNENGRQM, -0.831 ± 1.2.

For the substance SLSYFSSFI, the amyloid nucleation score result was “inactive”. Consider TLVLYVKRCWESGLISNECF, for which the amyloid nucleation score is -0.699 ± 1.5. To LCMKFSAVFWELKRV belongs 0.498 ± 0.52. RNCWGANLFDMWIRKSFR had an amyloid nucleation score of 0.067 ± 0.77. In the case of GQAWCTLTCRGTGPSQLGWV, the amyloid nucleation score is -0.508 ± 0.57. To ERMGDSQGPKAGLWSFKYP belongs -0.226 ± 0.97; to FDNAPMSDLG, 0.405 ± 0.72. LCNFDSGFGNYGLL yielded an amyloid nucleation score of -0.17 ± 0.52. As for GYARILKDLGYPFPYDLQHL, the amyloid nucleation score result is “inactive”. As for MNGYLRLHSDTNCSCC, the amyloid nucleation score entry is “inactive”. To EFYSVTIGNWAMNRTHWRVN belongs 0.461 ± 0.69; to QQLALPPWSCLWQ, 0.095 ± 0.49; to PDDSKFSNV, 0.902 ± 0.88. For VIVCIEAAAETYSTGQSLDA the value was -0.15 ± 0.3; for VSVFLGSGHRRARGW, -0.482 ± 0.47.

Substance SSSGFNIFRLLV came in with an amyloid nucleation score of -0.325 ± 0.25. FQLRNL displayed an amyloid nucleation score of 0.414 ± 0.34.

The substance ILICKSVRVQYTLSKLW displayed an amyloid nucleation score of 1.8 ± 0.17. For IKHLKNMGFCVRESLYSDRF, the amyloid nucleation score was -0.042 ± 0.59. To KRTHSTLHK belongs 0.36 ± 0.38; to SLDYLIFPVLDDGKKYMFVM, 1.33 ± 0.46. Substance GISGLVLSYGADSGPGTWGK registered an amyloid nucleation score of -0.63 ± 0.42.

RFCRHEMVFVLDLNTYISVP returned an amyloid nucleation score of 0.887 ± 0.26.

With FSTLICIGVE, the amyloid nucleation score was -0.35 ± 0.65. Consider NCGGRVSG, for which the amyloid nucleation score is 8.076 ± 0.06. In the case of HQLAFYRFCIASSCSWAYLS, the amyloid nucleation score came to 0.825 ± 0.41.

For the substance LRSVPRSRSF, the amyloid nucleation score came to 0.783 ± 0.41.

In the case of ESTAQSEV, the amyloid nucleation score was -0.237 ± 0.42. NNRKYLGRNMAANWGAWFKR yielded an amyloid nucleation score of -0.395 ± 0.36. For LCITRT the value was -0.521 ± 0.56; for PILFYDQSFLILWQINGAGG, “inactive”. On to VFLVGMFLIRRVAVN, for which the amyloid nucleation score is 0.72 ± 0.87. For HSLSWDNKLCLCSAN, the amyloid nucleation score came to 0.099 ± 0.3. With ISFYTVRWLAAGRRFLISF, the amyloid nucleation score was determined as 0.224 ± 0.59. The substance SICSFLFR registered an amyloid nucleation score of 3.69 ± 0.093.

Substance PQPYTRNIERLAYVFTLDMP returned an amyloid nucleation score of -0.21 ± 0.27.

As to GDDVRRPVVSVHNSRGYSFG, the amyloid nucleation score was -0.235 ± 0.32. Consider HNCDYNCFNRGAHRVSEVGI, for which the amyloid nucleation score result was “inactive”. For KYRSCGNGIPLIISHLLVER the value was 0.317 ± 0.26; for GTVSDGMSVIRVKGMRWSDY, 1.13 ± 0.73.

As to LTFNAMMMMIMLIMSAYIVS, the amyloid nucleation score was 1.89 ± 0.46. For the substance VFAMPYYSCGVLWNRGNW, the amyloid nucleation score is 0.566 ± 0.48. HALMTARAFTCPWRMVVKFQ: the amyloid nucleation score amounted to 0.897 ± 0.61. Consider GCGRGMLLGFAPWITCPWMS, for which the amyloid nucleation score was determined as 0.971 ± 0.49.

In turn, LRWFPEAFNGAERESLASNL returned an amyloid nucleation score of -0.102 ± 0.52. In turn, MYLCVRLGSIKYFSGVLWS returned an amyloid nucleation score of 0.056 ± 1.4. To RFFPWQPCNPHIMPLIFWMP belongs 0.692 ± 0.82; to ALSSAALEYNIPVGSGAFVN, 0.25 ± 1.4; to WNIGYNFVSDSLPPRNYFVE, -0.198 ± 0.37. For QCSSANTSGIAETSTSLGRT the value was -0.244 ± 1.1; for RMDWWLEERASSSCDEELLT, “inactive”; for VLLGELIL, 0.434 ± 0.56. For SLNFPLLSQPAPIFVLSDKG the value was 0.974 ± 0.76; for GLSVFSCQFFFNSTAFFSVN, 6.061 ± 0.06; for TRLLSYFDTRRELNCKVYYN, -0.053 ± 0.66. On to SDLDVRAWQSLVSWIYRFPS, for which the amyloid nucleation score is 0.18 ± 0.37. Substance SMSHVWL displayed an amyloid nucleation score of -1.25 ± 1.5. To KMKLRHTSCRFSREVTDVY belongs 0.614 ± 0.32; to GQFSRSCGTVHNQSVYRRCL, 1.5 ± 0.48; to EFFRVMPGNT, 3.68 ± 0.13. For ASAMLMHF the value was 0.716 ± 0.2; for VSLLSVWFDTHYIWSITGVD, -0.247 ± 0.45.

Regarding WRQWKTLTARLTAMKA, the amyloid nucleation score was -0.178 ± 0.33. Turning to RTNSWAESHRSHCVCATSCG, the amyloid nucleation score is -0.743 ± 0.6. For the substance YLFSFWFPRYRHVIFIGYTL, the amyloid nucleation score was 0.531 ± 0.53. To MWTNWDVLPELDGTPRALLW belongs -0.501 ± 0.99; to SRKVLTPVSPVSVRAARVGH, -0.979 ± 1.9; to LWKGATRCHKVLRMLENDND, -0.606 ± 0.9. TFFCTYTYLWLICIIGQYYF yielded an amyloid nucleation score of 3.44 ± 0.11.

SGAPYS gave an amyloid nucleation score of 0.185 ± 0.34.

Turning to IDKMELFSRSKHKWYMASAI, the amyloid nucleation score is -0.267 ± 0.79.

GHHLSVWRSNSCSCVWSITD: the amyloid nucleation score was -0.184 ± 0.4. Regarding SHIGIFEGFYVYLPYDCITM, the amyloid nucleation score entry was “inactive”.

The record behind these values is the supplement of paper PMC12042874.
